Source: article doi:10.1101/2021.10.14.464379 (bioRxiv, 2021)

Molecular target: the molecule itself
Assay: SAXS

B1: Ipomoea batatas BAM5 (sweet potato beta-amylase) (enzyme)
chain: APIPGVMPIGNYVSLYVMLPLGVVNADNVFPDKEKVEDELKQVKAGGCDGVMVDVWWGIIEAKGPKQYDWSAYRELFQLVKKCGLKIQAIMSFHQCGGNVGDAVFIPIPQWILQIGDKNPDIFYTNRAGNRNQEYLSLGVDNQRLFQGRTALEMYRDFMESFRDNMADFLKAGDIVDIEVGCGAAGELRYPSYPETQGWVFPGIGEFQCYDKYMVADWKEAVKQAGNADWEMPGKGAGTYNDTPDKTEFFRPNGTYKTDMGKFFLTWYSNKLIIHGDQVLEEANKVFVGLRVNIAAKVSGIHWWYNHVSHAAELTAGFYNVAGRDGYRPIARMLARHHATLNFTCLEMRDSEQPAEAKSAPQELVQQVLSSGWKEYIDVAGENALPRYDATAYNQMLLNVRPNGVNLNGPPKLKMSGLTYLRLSDDLLQTDNFELFKKFVKKMHADLDPSPNAISPAVLERSNSAITIDELMEATKGSRPFPWYDVTDMPVDGSNPFD
  stoichiometry N: 4
